Test [1] deals with T1, human GLP-1 receptor (human, UniProt P43220 24-463).
T1 construct: whole, on cells; Used as purified plasma membranes of the stably transfected BHK cell line, not as intact cells; also called hGLP-1
Description: SPA displacement assay; IC50 at 2.0% HSA over IC50 at 0.001% HSA. The protocol: (§1) A shift in the binding affinity, $IC50$, is an indication that the peptide in question binds to albumin, and thereby a prediction of a potential protracted pharmacokinetic profile of the peptide in question in animal models.
(§2) 50 ul (micro liter) HSA ("high albumin" experiment containing 2% HSA), or buffer ("low albumin" experiment containing 0.001% HSA), was added to Optiplate, and 25 ul of test compounds were added. 5-10 ug membrane protein/sample was added (50 ul) corresponding to 0.1-0.2 mg protein/ml (to be preferably optimised for each membrane preparation). SPA-particles (Wheatgerm agglutinin SPA beads, Perkin Elmer, #RPNQ0001) were added in an amount of 0.5 mg/well (50 ul). […] The plates were sealed with PlateSealer and incubated for 120 minutes at 30° C. while shaking. The plates were centrifuged (1500 rpm, 10 min) and counted in Topcounter.

For test [2], the target named is T1, human GLP-1 receptor. Description: SPA, displacement of 125I-GLP-1(7-36)NH2 from hGLP-1R BHK membranes, low HSA (0.001%). The protocol: as §1, §2
The target in test [3] is T1, human GLP-1 receptor. Description: SPA, displacement of 125I-GLP-1(7-36)NH2 from hGLP-1R BHK membranes, high HSA (2.0%). The protocol: as §1, §2
Test [4] has as its target T1, human GLP-1 receptor. Description: cell-based or functional assay.

Numbered stars: 1 amine (or outer) side, 2 acyl side, 3 side chain; on linkers, the order of the positions; unused ones are H or OH. Side chains are listed from the residue outwards. Ends that are not written are not given here. * marks the point of attachment. Decanoyl(10-(4-HOOC-PhO)) = O=C(O)c1ccc(OCCCCCCCCCC(=O)*)cc1; γGlu = O=C(O)[C@H](CCC(=O)[*:2])N[*:1]; C14 diacid = O=C(O)CCCCCCCCCCCCC(=O)*; AEEA = NCCOCCOCC(=O)O

B1: N^ε27-[2-[2-[2-[[2-[2-[2-[[(4S)-4-carboxy-4-[10-(4-carboxyphenoxy)decanoylamino]butanoyl]amino]ethoxy]ethoxy]acetyl]amino]ethoxy]ethoxy]acetyl], … (peptide)
peptide: HAEGTFTSDVSSYLEEQAVRK([AEEA-AEEA-γGlu-Decanoyl(10-(4-HOOC-PhO))])FIAWLVRGRK([AEEA-AEEA-γGlu-Decanoyl(10-(4-HOOC-PhO))])
In the case of B1, the “Ratio [(IC50/nM) high HSA]/[(IC50/nM) low HSA]” value (shortened to “Ratio”) in the test with human GLP-1 receptor [1] came to 217. Also, the IC50 was found to be 0.15 nM with human GLP-1 receptor [2] and 33 nM in the test with human GLP-1 receptor [3]. Besides, in the test with human GLP-1 receptor [4], the “EC50/pM (in vitro potency, cAMP formation, AlphaScreen)” value (“EC50/pM” for short) was determined as 143 pM.

B2: N^ε27-[2-[2-[2-[[2-[2-[2-[[(4S)-4-carboxy-4-(13-carboxytridecanoylamino)butanoyl]amino]ethoxy]ethoxy]acetyl]amino]ethoxy]ethoxy]acetyl], … (peptide)
peptide: HAEGTFTSDVSSYLEEEAVRK([AEEA-AEEA-γGlu-C14 diacid])FIAHLVQGRK([AEEA-AEEA-γGlu-C14 diacid])
notes: also called 17
Regarding B2, the “Ratio” value in the test with human GLP-1 receptor [1] was found to be 387. For the same molecule, the IC50 is 0.45 nM in the test with human GLP-1 receptor [2] and 174 nM with human GLP-1 receptor [3]. Also, in the test with human GLP-1 receptor [4], the “EC50/pM” value was determined as 17 pM.

B3: N^ε24-[2-[2-[2-[[2-[2-[2-[[(4S)-4-carboxy-4-[10-(4-carboxyphenoxy)decanoylamino]butanoyl]amino]ethoxy]ethoxy]acetyl]amino]ethoxy]ethoxy]acetyl], … (peptide)
peptide: HAEGTFTSDVSSYLEEQK([AEEA-AEEA-γGlu-Decanoyl(10-(4-HOOC-PhO))])VRK([AEEA-AEEA-γGlu-Decanoyl(10-(4-HOOC-PhO))])FIAWLVRGRG
notes: also called 28
For the molecule B3, in the test with human GLP-1 receptor [1], the “Ratio” value was 144. For the same molecule, the IC50 in the test with human GLP-1 receptor [2] came to 0.2 nM; with human GLP-1 receptor [3], 29 nM. For the same molecule, in the test with human GLP-1 receptor [4], the “EC50/pM” value was found to be 68 pM.

B4: N^ε24-[2-[2-[2-[[2-[2-[2-[[(4S)-4-carboxy-4-(13-carboxytridecanoylamino)butanoyl]amino]ethoxy]ethoxy]acetyl]amino]ethoxy]ethoxy]acetyl], … (peptide)
peptide: HAEGTFTSDVSSYLEEQK([AEEA-AEEA-γGlu-C14 diacid])VRK([AEEA-AEEA-γGlu-C14 diacid])FIAHLVRGRG
notes: also called 24
B4: in the test with human GLP-1 receptor [1], the “Ratio” value stood at 18. Moreover, the IC50 with human GLP-1 receptor [2] turned out to be 2.74 nM; in the test with human GLP-1 receptor [3] it was 50 nM. For the same molecule, the “EC50/pM” value in the test with human GLP-1 receptor [4] is 70 pM.

B5: N^ε27-[2-[2-[2-[[2-[2-[2-[[(4S)-4-carboxy-4-[[(4S)-4-carboxy-4-[10-(4-carboxyphenoxy)decanoylamino]butanoyl]amino]butanoyl]amino]ethoxy]ethoxy]acetyl]amino]etho … (peptide)
peptide: HAEGTFTSDVSSYLEGQAVRK([AEEA-AEEA-γGlu-γGlu-Decanoyl(10-(4-HOOC-PhO))])FIAWLVQGK([AEEA-AEEA-γGlu-γGlu-Decanoyl(10-(4-HOOC-PhO))])G
notes: also called 23
Regarding B5, in the test with human GLP-1 receptor [1], the “Ratio” value was 47. Further, the half-maximal inhibitory concentration (IC50) in the test with human GLP-1 receptor [2] turned out to be 0.85 nM; with human GLP-1 receptor [3] it was 40 nM. The “EC50/pM” value in the test with human GLP-1 receptor [4] is 140 pM.

B6: N^ε22-[(4S)-4-carboxy-4-[[2-[2-[2-[[2-[2-[2-(13-carboxytridecanoylamino)ethoxy]ethoxy]acetyl]amino]ethoxy]ethoxy]acetyl]amino]butanoyl], … (peptide)
peptide: HAEGTFTSDVSSYLEK([γGlu-AEEA-AEEA-C14 diacid])QAVRK([γGlu-AEEA-AEEA-C14 diacid])FIEWLVQGRG
notes: also called 20
As to B6, in the test with human GLP-1 receptor [1], the “Ratio” value is 1750. The figures for the IC50 with human GLP-1 receptor [2] and with human GLP-1 receptor [3] were 0.19 nM and 333 nM, respectively. Moreover, in the test with human GLP-1 receptor [4], the “EC50/pM” value was determined as 67 pM.

B7: N^ε27-[2-[2-[2-[[2-[2-[2-[[(4S)-4-carboxy-4-(13-carboxytridecanoylamino)butanoyl]amino]ethoxy]ethoxy]acetyl]amino]ethoxy]ethoxy]acetyl], … (peptide)
peptide: HAEGTFTSDVSSYLEGQAVRK([AEEA-AEEA-γGlu-C14 diacid])FIAHLVQGRK([AEEA-AEEA-γGlu-C14 diacid])
notes: also called 16
Regarding B7, the “Ratio” value with human GLP-1 receptor [1] came out at 127. The IC50 with human GLP-1 receptor [2] was 0.2 nM; with human GLP-1 receptor [3], 25 nM. The “EC50/pM” value with human GLP-1 receptor [4] is 21 pM.

B8: N^ε27-[2-[2-[2-[[2-[2-[2-[[(4S)-4-carboxy-4-[10-(4-carboxyphenoxy)decanoylamino]butanoyl]amino]ethoxy]ethoxy]acetyl]amino]ethoxy]ethoxy]acetyl], … (peptide)
peptide: HAEGTFTSDVSSYLEEQAARK([AEEA-AEEA-γGlu-Decanoyl(10-(4-HOOC-PhO))])FIAWLVRGRK([AEEA-AEEA-γGlu-Decanoyl(10-(4-HOOC-PhO))])
On to B8, for which the “Ratio” value in the test with human GLP-1 receptor [1] was 219. The half-inhibitory concentration (IC50) with human GLP-1 receptor [2] amounted to 0.19 nM; in the test with human GLP-1 receptor [3] it was 42 nM. Further, the “EC50/pM” value with human GLP-1 receptor [4] is 26 pM.

B9: N^ε22-[2-[2-[2-[[2-[2-[2-[[(4S)-4-carboxy-4-(13-carboxytridecanoylamino)butanoyl]amino]ethoxy]ethoxy]acetyl]amino]ethoxy]ethoxy]acetyl], … (peptide)
peptide: HAEGTFTSDVSSYLEK([AEEA-AEEA-γGlu-C14 diacid])QAVRK([AEEA-AEEA-γGlu-C14 diacid])FIEWLVQGRG
notes: also called 11
With B9, the “Ratio” value in the test with human GLP-1 receptor [1] stood at 926. Further, the IC50 in the test with human GLP-1 receptor [2] is 0.23 nM; with human GLP-1 receptor [3], 213 nM. Further, the “EC50/pM” value with human GLP-1 receptor [4] worked out at 81 pM.

The values above are taken from US9266940 (Novo Nordisk, dated 2016).
